# Laboratory results: US10047131B2, “Peptides and combination of peptides for use in immunotherapy against ovarian cancer and other cancers” (immatics biotechnologies GmbH, priority 2015, dated 2018)
# Target: HLA-A*02:01 (Homo sapiens, UniProt P04439, D140Y/D185E/D98H/E176V/E277Q/G131W/G231S/I119V/I121R/I166T/I218V/L300P/L318F/N151K/N90K/P208A/P217A/Q86G/Q94H/R138H/R169H/T345S)
# Assay: MHC binding assay (UV-ligand exchange, ELISA of exchange yield)
# Details: binding to HLA-A*02:01, UV-ligand exchange
# How it was run: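 Peptide–MHC complexes made by UV-ligand exchange, where a UV-cleavable peptide is replaced by the test peptide. Exchange yield measured by ELISA: complexes diluted 100-fold on streptavidin-coated plates, stabilized complexes detected with HRP anti-β2m, TMB read at 450 nm.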
row,Substance,"Peptide exchange (MHC class I binding score, peptide exchange yield)"
1,319 (SLEPQIQPV; listed as Homo sapiens) [compound 319],“++” (≥20% = ++)
2,320 (KMFEFVEPLL; listed as Homo sapiens) [compound 320],“++++” (≥75% = ++++)
3,321 (GLFEDVTQPGILL; listed as Homo sapiens) [compound 321],“++++” (≥75% = ++++)
4,322 (TLMTSLPAL; listed as Homo sapiens) [compound 322],“+++” (≥50 = +++)
5,324 (FLYDEIEAEV; listed as Homo sapiens) [compound 324],“+++” (≥50 = +++)
6,325 (FIMPATVADATAV; listed as Homo sapiens) [compound 325],“+++” (≥50 = +++)
7,326 (FLPEALDFV; listed as Homo sapiens) [compound 326],“+++” (≥50 = +++)
8,327 (GLAPFTEGISFV; listed as Homo sapiens) [compound 327],“+++” (≥50 = +++)
9,328 (ALNDQVFEI; listed as Homo sapiens) [compound 328],“+++” (≥50 = +++)
10,329 (FLVTLNNVEV; listed as Homo sapiens) [compound 329],“++++” (≥75% = ++++)
11,330 (QLALKVEGV; listed as Homo sapiens) [compound 330],“+++” (≥50 = +++)
12,331 (KVDTVWVNV; listed as Homo sapiens) [compound 331],“+++” (≥50 = +++)
13,332 (YLISELEAA; listed as Homo sapiens) [compound 332],“+++” (≥50 = +++)
14,333 (FLPDANSSV; listed as Homo sapiens) [compound 333],“++” (≥20% = ++)
15,334 (TLTKVLVAL; listed as Homo sapiens) [compound 334],“+++” (≥50 = +++)
16,335 (YSLSSVVTV; listed as Homo sapiens) [compound 335],“+++” (≥50 = +++)
17,336 (ILLTAIVQV; listed as Homo sapiens) [compound 336],“+++” (≥50 = +++)
18,337 (HLLSELEAAPYL; listed as Homo sapiens) [compound 337],“++++” (≥75% = ++++)
19,339 (GLWEIENNPTVKA; listed as Homo sapiens) [compound 339],“++++” (≥75% = ++++)
20,340 (ALLSMTFPL; listed as Homo sapiens) [compound 340],“++++” (≥75% = ++++)
21,341 (SQIALNEKLVNL; listed as Homo sapiens) [compound 341],“+++” (≥50 = +++)

row,Substance,"Peptide exchange (MHC class I binding score, peptide exchange yield)"
1,342 (HIYDKVMTV; listed as Homo sapiens) [compound 342],“+++” (≥50 = +++)
2,343 (SLLEVNEESTV; listed as Homo sapiens) [compound 343],“+++” (≥50 = +++)
3,344 (YLQDQHLLLTV; listed as Homo sapiens) [compound 344],“+++” (≥50 = +++)
4,345 (VIWKALIHL; listed as Homo sapiens) [compound 345],“+++” (≥50 = +++)
5,346 (LLDSKVPSV; listed as Homo sapiens) [compound 346],“+++” (≥50 = +++)
6,347 (SLFKHDPAAWEA; listed as Homo sapiens) [compound 347],“++++” (≥75% = ++++)
7,348 (ILLDVKTRL; listed as Homo sapiens) [compound 348],“++++” (≥75% = ++++)
8,349 (SLTEYLQNV; listed as Homo sapiens) [compound 349],“++++” (≥75% = ++++)
9,350 (ALLDVTHSELTV; listed as Homo sapiens) [compound 350],“+++” (≥50 = +++)
10,351 (SLIPNLRNV; listed as Homo sapiens) [compound 351],“+++” (≥50 = +++)
11,352 (SLLELLHIYV; listed as Homo sapiens) [compound 352],“+++” (≥50 = +++)
12,353 (YLFEMDSSL; listed as Homo sapiens) [compound 353],“++” (≥20% = ++)
13,354 (LILEGVDTV; listed as Homo sapiens) [compound 354],“++” (≥20% = ++)
14,355 (SIQQSIERLLV; listed as Homo sapiens) [compound 355],“++” (≥20% = ++)
15,356 (KLLGKLPEL; listed as Homo sapiens) [compound 356],“+++” (≥50 = +++)
16,357 (SMHDLVLQV; listed as Homo sapiens) [compound 357],“+++” (≥50 = +++)
17,358 (ALDEYTSEL; listed as Homo sapiens) [compound 358],“++++” (≥75% = ++++)
18,359 (YLLPESVDL; listed as Homo sapiens) [compound 359],“+++” (≥50 = +++)
19,361 (ALYELEGTTV; listed as Homo sapiens) [compound 361],“+++” (≥50 = +++)
20,362 (TLYGLSVLL; listed as Homo sapiens) [compound 362],“+++” (≥50 = +++)

# Further lines, results first:
row,"Peptide exchange (MHC class I binding score, peptide exchange yield)",Substance
1,“++” (≥20% = ++),363 (KVLDVSDLESV; listed as Homo sapiens) [compound 363]
2,“+++” (≥50 = +++),364 (LLQNEQFEL; listed as Homo sapiens) [compound 364]
3,“+++” (≥50 = +++),365 (YVIDQGETDVYV; listed as Homo sapiens) [compound 365]
4,“+++” (≥50 = +++),366 (RLLDMGETDLML; listed as Homo sapiens) [compound 366]
5,“+++” (≥50 = +++),367 (SLQNHNHQL; listed as Homo sapiens) [compound 367]
6,“+++” (≥50 = +++),369 (GLFPEHLIDV; listed as Homo sapiens) [compound 369]
7,“+++” (≥50 = +++),370 (SLLQDLVSV; listed as Homo sapiens) [compound 370]
8,“++++” (≥75% = ++++),371 (FLQAHLHTA; listed as Homo sapiens) [compound 371]
9,“++” (≥20% = ++),372 (TMLLNIPLV; listed as Homo sapiens) [compound 372]
10,“++” (≥20% = ++),373 (SLLEDKGLAEV; listed as Homo sapiens) [compound 373]
11,“++” (≥20% = ++),374 (FLLQQHLISA; listed as Homo sapiens) [compound 374]
12,“++” (≥20% = ++),375 (SLTETIEGV; listed as Homo sapiens) [compound 375]
13,“++” (≥20% = ++),376 (AMFESSQNVLL; listed as Homo sapiens) [compound 376]
14,“++” (≥20% = ++),377 (FLLDSSASV; listed as Homo sapiens) [compound 377]
15,“+++” (≥50 = +++),378 (ALGYFVPYV; listed as Homo sapiens) [compound 378]
16,“++” (≥20% = ++),379 (IMEGTLTRV; listed as Homo sapiens) [compound 379]
17,“++” (≥20% = ++),380 (TLIEDEIATI; listed as Homo sapiens) [compound 380]
18,“++” (≥20% = ++),381 (FIDEAYVEV; listed as Homo sapiens) [compound 381]
19,“++” (≥20% = ++),382 (ALQNYIKEA; listed as Homo sapiens) [compound 382]
20,“+++” (≥50 = +++),383 (ALLELENSVTL; listed as Homo sapiens) [compound 383]
21,“+++” (≥50 = +++),384 (ILFANPNIFV; listed as Homo sapiens) [compound 384]
22,“++” (≥20% = ++),385 (SLLEQGLVEA; listed as Homo sapiens) [compound 385]
23,“+++” (≥50 = +++),386 (ILFRYPLTI; listed as Homo sapiens) [compound 386]
24,“++++” (≥75% = ++++),387 (ALFQATAEV; listed as Homo sapiens) [compound 387]
25,“+++” (≥50 = +++),388 (SLTIDGIRYV; listed as Homo sapiens) [compound 388]
